Assay results as given in the nanobody polyreactivity screen of Harvey et al. (2022).

Test: yeast display, Sf9 membrane polyspecificity reagent, FACS + sequencing; frameworks hold sequencing errors
How it was run: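 Synthetic nanobody libraries on Saccharomyces cerevisiae BJ5465 were galactose-induced for 36–48 hours, stained 1 hour at 4 °C with 10% biotinylated, detergent-solubilized Sf9 membrane reagent and enriched on streptavidin microbeads. FACS then separated cells into low and high (top ~1%) gates by anti-HA (expression) and streptavidin (reagent binding) fluorescence. Genes were colony-PCR amplified, MiSeq 2 × 250 sequenced and CDR-length filtered. A clone's polyreactivity label is that of its gate of origin.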

| Sequence | polyreactivity (PSR sort gate) |
| --- | --- |
| QVQLVESGGGVVQAGGSLRLSCAASGRIFRYYTMGWYRQAPGKERELVASITGSGTSTYYADSVKGRFTISRDNAKNTVYLQMNSLKPEDNAVYYCNARGFRVASHAAWYQYDYWGQGTQVTVSS | high polyreactivity |
| QVQLVESGGGLVQAGGSLRLSCAASGSTFTTNAMGWSRQAPGNERELVATISGGGSTYYADSVKGRFTISRDNAKNTVYLQMNSLKPEDTAVYDCATDVQVPGIGRSVYAYEYWGQGTQVTVSS | low polyreactivity |
| QVQLVESGGGLVQAGGSLRLTCAASGSTFVWYAMGWSRQAPGKEREFVATISWSDGSTYYADSVKGRFTISRDNAKNTVYLQMNSLKPEDTAVYYCASDVDRFFTYKYDYWGQGTQVTVSS | low polyreactivity |
| QVQLLESGGGLVQAGGSLRLSCAASGFIFAKNAMGWYRKAPGKERELVAAISASGGRTYYADSVKGRFTISRDNAKNTVYLQMNSLKPEDTAVYYCAARRDGRSGSYNYWGQGTQVTVSS | high polyreactivity |
| QVQLVESGGGLVQAGGSLRLICAASGRTFILYTMGWYRQAPGKERELVAAITTGGSTSYADSVKGRFTISRDNAKNTVYLQMNSLKPEDTAVYNWAADTVGYSWRWFTWYEMGYWGQGTQVTVSS | low polyreactivity |
| QDQLVESGGGLVQAGGSLRLSCAASGSTFNNNALGWYRQAPGKERELVAAISYTGGSTYYADSVKGRFTISRDNAKNSVYLHMNSLKPEDTAVYYCARRQARKFYYWGQGTQVTVSS | high polyreactivity |
| QVQLVESGGGLVQAGGSLRLSCAASGINFFVYDMGWYRQAPGKERELVAAITWSGDSTYYADSVKGRFTISRDNAKNTVYLQINSLKPVDSAVYYCAAQFDVYYSRQPYDYNRSGYWGQGTQVTVSS | low polyreactivity |
| QVQLVESGGGLVQAGGSLRLSCAASGFIFIYNAMGWYRHAPGKERELVATINWSGGDSTYYADSVKGRFTISRDKAKNTVSLQMNSLKPEDTSVYYCATLSWYQQAYDYWGQGTQVTVSS | low polyreactivity |
| QVQLVESGGGLVQAGGSLRLSCAASGSIFGYYTMGWYRQAPGKERELVATISRSGGSTYYADSVKGRFTISRDNAKNTVYLQMNSLKPEDTAVYYCGARSWGGYDSRGYWGQGTQVTVSS | high polyreactivity |
| QVQLVESGGGLVQAGGSLRLSCSASGSTFFPYAMGWYRQAPGKERELVAAITSGGNTNYADSVKGRFTISRDNAKNTVYLQMNSLKPEDTAVYYCAADYLWHYRKYDYWGQGTQVTVSS | low polyreactivity |
| QVQLVESGGGLVQAVGSLRLSCAASGRIFPYYAMGWYSQAPGKERELVAVFTIGGNSYYADSVKGRFTMSRDNAKNTVYLQMNSLKPEDTAVYYCAASAYSYYRFDYWGQGTQVTVSS | low polyreactivity |
| QVQLVESGGGLVQAGGSLRLSCAASGSIFRKYTMGWYRQAPGKERELVAAINTNGGSTYYADSVKGRFTISRDNAKNTVYLQMNSLKPEDTAVYYCRAWAQNQYNYWGQGTQVTVSS | high polyreactivity |
| QVQLVESGGGLVQAGGSLRLSCAASGSIFFVYAMGWYTQAPGKERELVAGIRWSGGRTSYADSVKGRFTISRDNAKNTVYLQMNSLNQEDTAVYYCAAGCGVLPQQHYYYRYDYWGQGTQVTVSS | high polyreactivity |
| QVQLVESGGGLVQAGGSHRLSCAASGRILYGYAMGWYRQAPGQERELVASITWSGGSTYADSVKGRFTISRDNAKNTVYLQMKSLKPEDTAVYYCATRRGPKWQWLTYGYWGLGTQVTVSS | low polyreactivity |
| QVQLVESGGGLVQAGGSLRLSCAASGSSFTRYAMGWYRQAPGKERELVATINFSGDRTYYADSVKGRFTISRDNAKNTVYLQMNSLKPEDTAVYYCNNYSYQWPYRRFDYWGQGTLVTVSS | high polyreactivity |
| QVQLVESGGGLVQAGGSLRLICAASGSIFRIYAMGWYRQAPGKEREFVAAISRRGGSTYYADSVKGRFTISRDNAKNTVYLQMNSLKPEDTAVYYCAASGGGSDAYWGQGTQVTVSS | high polyreactivity |
| QVQLVESGGGLVQAGGSLRLSCAASGLIFVRYAMGWYRQAPGKERELVAAITTGGRTYYADSVKGRFTISRDNAKNTVYLQMNSLKPEDTAVYYCAAQSFYGIYYGQQDYDYWGQGTQVTVSS | high polyreactivity |
| QVQLVESAGGLVQAGGSLRLSCAASGSTFVANAMGWYRQAPGKERELVARISRSTGSTYYADSVKGRFTISRDNAKNTVYLQMNSLKPEDTAVYYCAAPSVYYPQFDYWGQGTQVTVSS | high polyreactivity |
| QVQLVESGGGLVQAGGSLRLSCAASGFTFSAYAMGWYRQAPGKERELVAAIRSSDITYYADSVKGRFTISRDNAKNTVYLQMNSLKPEDTAVYYCAADLGDYYLYYDYEYWGQGTQVTVSS | high polyreactivity |
| QVQLVESGGGLVQAGGSLRLSCAASGRIFYTNAMGWYRQAPGKERELVATISGSGGNTYYADSVKGRFTISRDNAKNTVYLQMNSLKPEDTAVYYCAKAYYTPYGVYVLHYYWGQGTQVTVSS | high polyreactivity |
| QVQLVESGGGLVQAGGSLRLSCAASGRTFVTNAMGWYRPAPGKERELVPAISSNGGSTYYADSVKGRFTISRDTAKNTVYLQMNSLKPEDTAVYYCNAEGQPLYWWDHGNYWGQGTQVTVSS | low polyreactivity |
| QVQLVESVGGLVQAGGSLSLSSAASGRTFGNYAMGWYRQAPGKERELVADITRRGGSTSYADSVKGRFTISRDNAKNTVYLQMTSLKTEDTAVYYCNKAAEGSSHYDYWGLGTQVTVSS | low polyreactivity |

| Sequence | polyreactivity (PSR sort gate) |
| --- | --- |
| QVQHVESGGGLVQAGGSLRLSCAASGFIFYDKAMGRYRTAPGKERELVAGITYRTGSTFYADSVKGRFTISRDNAKNTVYLQMISLKPEDTAVFYCAAVRRISWYTPVNTRRYYYWGQGTQVTVSS | high polyreactivity |
| QVQLVESGGGLVHSGGSLRLSCAASGRIFLPYGMGWYRKAPGKERELVATITIGGSTTYADSVKGRFTISRDNAKNTVYLLMNSLKPEDTAVYYCAVLRWVYYLHGYDYWGHGTQVTVSS | low polyreactivity |
| QVQLEESGGGLVQAGGSLRLSCAASGRSFYGNAMGWYRQAPGKERELVAASSSRSSSTSYADSVKGRFTISRANAKNTVYLLMNSLKPEDTAVYYCATRYGSRTWYGYNYWGQATQVTVSS | high polyreactivity |
| QVQLVESWGGLVQAGGSLRLSCAASGSIFRGYAMGWYRQAPGKGRELVAAISWSGASTYYADSVKGRFTISRDNAKNTVYLKMNSLKPEDTAVYYCAAVQWTGYPFDYWGQGTQVTVSS | high polyreactivity |
| QVQLVESGVGLFQAGGSLRLSCAASGITFYSYAMGWYRQAPGKESQLVATISRSGSTYYADSVKGRFTISRDNAKNSVYLQMNSLKPEDTAVYYCAAYYAVRGATYRYGYWGQGTQVTVSS | high polyreactivity |
| QVQLVETGGGLVQAGGSLRLSCPASGRIFEDNAMGWYRQEPGKERELVAAIDFSGGDTYYADSVKGRFTISRDNAKNTVYLQMNSLKPEDTAVYYCAAGRSGWGYDSWGQGTQVTVSS | low polyreactivity |
| QVQLVESGGGLVQAGGSLRLSCAASGSTFEFYAMGWYRQAPGKERELVASITSSSGPTYYADSVKGRFTISRDNAKNTVYLQMNSLKPEDTAVYYCAKRPIRYYHLLRGNYWGQGTQVTVSS | low polyreactivity |
| QVQLVESGGGLVQAGGSLRLSCAASGRIFAYNTMGWYRQAPGKERELVAVITSGGSTNYADSVKGRFTISRDNAKNTVYLQMNSLKPEDTAVYYCNADPRLRQTRDYWGQGTQVTVSS | high polyreactivity |
| HVQLVESGGGLVQAGGSLRLSCAASGRIFDWNAMGWYRPAPGKEWELVAAISSRSGGTYYADSVKGRFTISRDNAKNTVYFQMNSLKPEDTAVYYCAADYYWYGRFEYGYWGQGTQVTVSS | low polyreactivity |
| QVQLVESGGGLVQAGGSLRLSCAASGRIYSQYDMGWYRQAPGKESELVAAISGGVGTNYADSVKGRFTISRDNAKNTVYLQMNSLKPEDSAVYYCAADVGYLGRSRGYPSDDYDYWGQGTQVTVSS | low polyreactivity |
| QVQLVESGGGLVQAGGSLRLSCAASGYIFYRYAMGWYRQAPGKEREFVASITKRGGRTFYADSVKGRFTISRDNAKNTVYLQMNSLKPEDTAVYYCARKAEYGTDMGYWGQGTQVTVSS | high polyreactivity |
| QVQLVESGGGLVKAGGSLRLSCAASGGTFPLYAMGWYRQAPGKERELVAAIRWSGGRTYYADSVKGRFTISRDNAKNTVYLQMNSLKPEDTAVYYCSADYDDGWGYDYWGQGTQVTVSS | high polyreactivity |
| QVQLVESGGGLVQAGCSLRLSCAASGSTLFWYDMGWYRQAPGKERELVAAINWTGGSTYADSVKGRFTISRDNAKNTVYLQMNSLKPEDTAVYYCNADEYWASGYDPYDYWGQGTQVTVSS | low polyreactivity |
| QVQHVESGGGLVQAAGSLRLSCAASGTIFYWYTMGWYRQARGKERELVATITGSGSSTTYADSVKGRFTISRDNAKNSVYLQMNSLKPEDTAVYYCAKVYYIGIRGEYDYWGQGTQVTVSA | low polyreactivity |
| QVQLVESGGGLVQAGGSLRLSCAASGITFLVYVMGWYIQAPGKERELVAAISSGGSTYYADSVKGRFTISRDKAKNTVYLQMNSLKPEDTAVYYCAAERKLYGLYDYWGQGTQVTVSS | low polyreactivity |
| QVQLVESGGGLVQAGGSLRLSCAASGSIFDRNAMGWYRQAPGKERELVASISYSGGTTYADSVKGRFTISRDNAKNTVYLQMNSLKPEDTAVYYCNAGGVYPRFTFLEQGYEMDYWGQGTQVTVSS | low polyreactivity |
| QDQLVESGGGIVQAGGSLRLSCAASGSTIPSYAMGWYRQAPGKERELVASITYSDGTTRYADSVKGRFTISRDNAKNTVCLQMNRLKPVDTAVYYCNAVYDREGMDYWGQGTQVTVSS | low polyreactivity |
| QVQLVESGGGLFQAGGSLRVSCAASGRTFVNYAMGWYRQAAGKERELVAAISTSGGSTYYADSVKGRFTISRDNAKNTDYYQRNSLKPEDTAVYYCKKVRYLAVNLGQFTFDYWGQGTQGTVSS | low polyreactivity |
| QVQLLESGGGLVQAGGSLRLSCAASGRIFVTYAMGWYRQAPGKERELVAAITSRGGRTYYADSVKGRFTISRDNAKNTVYLQMNSLKPEATAVYYCAAYPGPGARYYYWGQGTQVTVSS | high polyreactivity |
| QVQLVESGGGLVQAGGSLRLSCAASGFTFRYYAMGWYRQAPGKERELVAAISSGGRTNYADSVKGRFTISRDNAKNTVYLQMNSLKPEDTAVYYCAKAQYYYIGDYDYWGQGTQVTVSS | high polyreactivity |
| QVQLVESGGGLVQAGGSLRLSCAASGSTFARNAMGWYRQAPGKERELVAAITTRGSSTYYADSVKGRFTISRDNAKNTVYLQMNSLKPEDTAVYYCAARTQAPLGKYGYWGQGTQVTVSS | high polyreactivity |
